Patent publication US20050065082A1 (published 2005)

Tests used:
[1] = target: T1, GST-BMAL1 (N-terminal GST fusion protein of human BMAL1; BMAL1b was used) (human, UniProt O00327 1-626); test: not described, Example 3 holds only kinase assays
T1 construct: Expressed in E. coli BL21; not shown: glutathione S-transferase (GST) tag encoded by the pGEX-4T vector (Amersham Pharmacia Biotech), N-terminal

[2] = target: T2, GST-BPL1 (N-terminal GST fusion protein of human BPL1, holocarboxylase synthetase) (human, UniProt P50747 1-726); test: not described, Example 4 holds only kinase assays
T2 construct: Expressed in E. coli BL21; not shown: glutathione S-transferase (GST) tag encoded by the pGEX-4T vector (Amersham Pharmacia Biotech), N-terminal
T2 sequence: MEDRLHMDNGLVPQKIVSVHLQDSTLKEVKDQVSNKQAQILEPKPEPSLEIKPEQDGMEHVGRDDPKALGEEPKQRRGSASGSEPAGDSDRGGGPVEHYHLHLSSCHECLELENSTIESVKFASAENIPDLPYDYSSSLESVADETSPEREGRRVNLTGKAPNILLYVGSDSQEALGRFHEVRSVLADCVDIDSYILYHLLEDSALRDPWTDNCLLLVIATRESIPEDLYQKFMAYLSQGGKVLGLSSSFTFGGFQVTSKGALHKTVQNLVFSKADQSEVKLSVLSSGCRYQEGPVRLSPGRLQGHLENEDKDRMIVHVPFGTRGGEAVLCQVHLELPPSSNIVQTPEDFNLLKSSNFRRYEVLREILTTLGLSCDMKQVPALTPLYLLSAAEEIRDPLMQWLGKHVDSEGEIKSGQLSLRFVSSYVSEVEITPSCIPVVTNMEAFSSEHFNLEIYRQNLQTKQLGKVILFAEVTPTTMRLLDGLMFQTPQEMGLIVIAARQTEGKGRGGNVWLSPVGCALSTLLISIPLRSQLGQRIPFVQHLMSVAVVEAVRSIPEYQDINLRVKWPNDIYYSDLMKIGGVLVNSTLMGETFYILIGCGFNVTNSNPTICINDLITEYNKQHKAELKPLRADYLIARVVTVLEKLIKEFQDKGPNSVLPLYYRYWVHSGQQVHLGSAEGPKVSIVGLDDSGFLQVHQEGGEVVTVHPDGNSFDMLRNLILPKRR

T1 sequence (O00327 whole entry, the tested form may be a part): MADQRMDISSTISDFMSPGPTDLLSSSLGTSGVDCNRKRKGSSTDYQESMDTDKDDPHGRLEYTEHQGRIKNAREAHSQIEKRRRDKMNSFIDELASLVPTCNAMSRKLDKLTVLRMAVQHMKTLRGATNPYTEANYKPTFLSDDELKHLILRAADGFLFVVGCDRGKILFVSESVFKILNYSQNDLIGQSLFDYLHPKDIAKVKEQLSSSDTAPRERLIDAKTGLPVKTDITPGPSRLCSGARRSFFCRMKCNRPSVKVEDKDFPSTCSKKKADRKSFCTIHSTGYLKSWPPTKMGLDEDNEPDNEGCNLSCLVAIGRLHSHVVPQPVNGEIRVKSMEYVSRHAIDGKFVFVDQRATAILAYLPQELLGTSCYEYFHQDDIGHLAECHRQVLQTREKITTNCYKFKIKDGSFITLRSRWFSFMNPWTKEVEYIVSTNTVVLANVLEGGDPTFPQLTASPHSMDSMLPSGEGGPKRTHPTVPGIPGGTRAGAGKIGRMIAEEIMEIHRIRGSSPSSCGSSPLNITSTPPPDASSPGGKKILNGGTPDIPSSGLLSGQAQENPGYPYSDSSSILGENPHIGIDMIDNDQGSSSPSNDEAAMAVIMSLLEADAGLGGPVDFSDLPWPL

B1: His-JNK3 (activated human JNK3 (JNK3α1) with an N-terminal histidine-tag) (enzyme, UniProt P53779-2 1-422, looked up)
chain: MSLHFLYYCSEPTLDVKIAFCQGFDKQVDVSYIAKHYNMSKSKVDNQFYSVEVGDSTFTVLKRYQNLKPIGSGAQGIVCAAYDAVLDRNVAIKKLSRPFQNQTHAKRAYRELVLMKCVNHKNIISLLNVFTPQKTLEEFQDVYLVMELMDANLCQVIQMELDHERMSYLLYQMLCGIKHLHSAGIIHRDLKPSNIVVKSDCTLKILDFGLARTAGTSFMMTPYVVTRYYRAPEVILGMGYKENVDIWSVGCIMGEMVRHKILFPGRDYIDQWNKVIEQLGTPCPEFMKKLQPTVRNYVENRPKYAGLTFPKLFPDSLFPADSEHNKLKASQARDLLSKMLVIDPAKRISVDDALQHPYINVWYDPAEVEAPPPQIYDKQLDEREHTIEEWKELIYKEVMNSEEKTKNGVVKGQPSPSAQVQQ
notes: Expressed in Sf9 cells by recombinant baculovirus, purified with Probond Resin; not shown: N-terminal His-tag and vector residues of pFastBac HT
[1]
  binding result: binds
[2]
  binding result: binds
